Source: article PMC3355305, “Localized Dimerization and Nucleoid Binding Drive Gradient Formation by the Bacterial Cell Division Inhibitor MipZ” (Molecular Cell, 2012)

System: MipZ or its mutant derivatives (immobilized, homotypic)
Assay: SPR analysis of MipZ self-association / dimer dissociation
Type: binding, Caulobacter crescentus
Description: Figure 2 Biochemical Analysis of MipZ Dimerization (A) ATPase cycle of MipZ. See the main text for details. (B and C) SPR analysis of MipZ self-association. […] After the binding phase, the chip was washed with buffer lacking protein and nucleotides to follow the dissociation reaction. The rate constants (koff) determined for the dissociation of the MipZ and MipZ-D42A complexes are 0.83 min^−1 and 0.067 min^−1, respectively. (D) Nucleotide-dependent dimerization of MipZ. MipZ-D42A was incubated with ADP (blue), ATP (orange) or ATPγS (red) and subjected to size exclusion chromatography. (E) ATPase activity of MipZ and its mutant derivatives. The graph gives the average turnover rate (kapp, average turnovers/min per molecule of MipZ) of the different MipZ derivatives (6 μM). Data represent the average of at least three independent experiments (±SD). Note that consistent with a critical role of the metal cofactor in dimerization and catalysis Mg^2+ was required for ATP turnover (Figure S2H). (F) Concentration dependence of the MipZ ATPase activity. The average turnover rate of MipZ (kapp) was determined at the indicated protein concentrations. […]

B1: MipZ: P loop ATPase and cell division inhibitor of Caulobacter crescentus; hexahistidine-tagged in vitro, YFP fusion in FRAP (protein)
chain: MAETRVIVVGNEKGGAGKSTIAVHLVTALLYGGAKVAVIDLDLRQRTSARFFENRRAWLDNKKIELPEPLALNLSDNDVALAERPEEEQVAGFEAAFARAMAECDFILIDTPGGDSAITRMAHGRADLVVTPMNDSFVDFDMLGTVDPVTLELTKPSLYSLTVWEGRKQRALSGQRQAMDWVVLRNRLATTEARNRKRLEDRLNALAKRVGFRIGPGLRDRVIYRELFPFGLTIADLSPQVRPVPVSLQHLAARQELRALMHSLGLSAYSGETMLAAQ
modifications: left off: His6, end not stated, state not stated
notes: hexahistidine-tagged in vitro, YFP fusion in FRAP
dissociation rate constant (koff) of the dimeric complex (in the presence of 1 mM ATPγS): 0.003 s⁻¹
dissociation rate constant (koff) of the dimeric complex (in the presence of ATP, chip washed with buffer lacking protein and nucleotides): 0.0138 s⁻¹
